The record followed here is article PMC13389190.

The assay addresses SpAB-T7 RNAP.

Sequence of Bamlanivimab (antibody) (VH): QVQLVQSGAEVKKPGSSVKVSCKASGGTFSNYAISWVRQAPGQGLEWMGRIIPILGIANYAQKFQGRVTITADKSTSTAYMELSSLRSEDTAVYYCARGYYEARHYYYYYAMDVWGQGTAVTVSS
Sequence of Bamlanivimab (antibody) (VL): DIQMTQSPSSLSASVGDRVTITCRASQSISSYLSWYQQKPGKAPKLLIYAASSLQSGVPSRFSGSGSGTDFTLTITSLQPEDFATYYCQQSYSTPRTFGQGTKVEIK

The substance Bamlanivimab (antibody) displayed an MDC (minimal detectable concentration of Bamlanivimab in the ZF-RBD / SpAB-T7 RNAP sensor, 2.5% human serum) of 12.7 nM.
